These are literature values, as cited in paper PMC13292882.

The target of series [1] is PCNA (Homo sapiens) (UniProt P12004). Conditions: cited from earlier work.
For series [2], the target named is RPA (Homo sapiens) (UniProt P27694). Kind of series: competition peptide displacement. Conditions: cited from earlier work.
RPA (Homo sapiens), sequence (P27694 2-616, chain 1 of 3): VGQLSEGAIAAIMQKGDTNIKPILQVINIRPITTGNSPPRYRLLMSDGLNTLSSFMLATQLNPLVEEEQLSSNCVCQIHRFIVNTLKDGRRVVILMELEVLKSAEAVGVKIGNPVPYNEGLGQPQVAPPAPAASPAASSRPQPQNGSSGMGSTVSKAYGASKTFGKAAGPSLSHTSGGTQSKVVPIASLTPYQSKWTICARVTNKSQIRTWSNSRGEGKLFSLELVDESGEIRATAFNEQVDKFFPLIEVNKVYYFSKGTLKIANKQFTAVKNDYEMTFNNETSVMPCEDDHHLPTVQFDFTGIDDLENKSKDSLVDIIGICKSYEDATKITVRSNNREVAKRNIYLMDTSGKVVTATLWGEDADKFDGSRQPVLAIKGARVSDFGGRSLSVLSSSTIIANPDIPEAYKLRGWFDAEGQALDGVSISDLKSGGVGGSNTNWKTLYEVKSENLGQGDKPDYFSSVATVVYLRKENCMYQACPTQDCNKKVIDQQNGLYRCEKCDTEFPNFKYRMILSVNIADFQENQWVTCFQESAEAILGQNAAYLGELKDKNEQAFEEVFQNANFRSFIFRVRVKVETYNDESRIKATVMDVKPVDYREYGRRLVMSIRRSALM
RPA (Homo sapiens), sequence (P15927 whole entry, chain 2 of 3, further chain): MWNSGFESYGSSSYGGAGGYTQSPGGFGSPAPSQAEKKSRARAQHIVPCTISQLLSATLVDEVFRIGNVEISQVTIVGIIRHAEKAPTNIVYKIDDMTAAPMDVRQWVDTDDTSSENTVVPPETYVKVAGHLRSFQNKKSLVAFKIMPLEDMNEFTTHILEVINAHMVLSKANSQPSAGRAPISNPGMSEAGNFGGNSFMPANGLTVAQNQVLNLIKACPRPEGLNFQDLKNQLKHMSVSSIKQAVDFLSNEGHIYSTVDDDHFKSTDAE
RPA (Homo sapiens), sequence (P35244 2-121, chain 3 of 3, further chain): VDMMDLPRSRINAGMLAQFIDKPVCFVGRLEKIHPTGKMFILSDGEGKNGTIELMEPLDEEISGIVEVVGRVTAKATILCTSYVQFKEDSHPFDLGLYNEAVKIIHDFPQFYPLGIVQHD

UNG2, sequence (P13051 whole entry): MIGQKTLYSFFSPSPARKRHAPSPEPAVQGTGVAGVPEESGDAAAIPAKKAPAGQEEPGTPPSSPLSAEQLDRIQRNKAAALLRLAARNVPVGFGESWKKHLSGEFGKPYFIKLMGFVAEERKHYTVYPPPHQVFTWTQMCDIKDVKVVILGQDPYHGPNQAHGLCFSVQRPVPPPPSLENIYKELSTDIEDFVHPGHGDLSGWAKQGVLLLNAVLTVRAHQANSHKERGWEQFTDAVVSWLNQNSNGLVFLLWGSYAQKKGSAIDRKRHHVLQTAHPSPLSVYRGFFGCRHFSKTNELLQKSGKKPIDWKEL
PCNA (Homo sapiens), sequence (P12004 whole entry): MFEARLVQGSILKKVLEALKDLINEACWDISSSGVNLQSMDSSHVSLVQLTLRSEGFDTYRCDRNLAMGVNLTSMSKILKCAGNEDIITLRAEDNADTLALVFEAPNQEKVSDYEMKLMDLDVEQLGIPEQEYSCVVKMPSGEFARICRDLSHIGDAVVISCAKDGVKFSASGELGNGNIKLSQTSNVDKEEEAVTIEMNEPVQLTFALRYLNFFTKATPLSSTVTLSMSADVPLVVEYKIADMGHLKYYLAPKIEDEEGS

The Kd is the equilibrium constant for the complex coming apart. Regarding UNG2 (from UniProt P13051), the Kd in series [1] was 1000 nM; in series [2], 3000 nM.
